The text below walks through data of PMC12529880, “Structural mechanisms for cold‐adapted activity of phosphoenolpyruvate carboxykinase” (Protein Science : A Publication of the Protein Society, 2025).

In this series the test system is T1, C=C(OP(=O)(O)O)C(=O)O.
T1 construct: full length, 622 residues, N-terminal His6-SUMO tag cleaved off with no additional amino acids; codon-optimised gene in pESUMO-Star; E. coli BL21(DE3); EC 4.1.1.32
Briefly: purified protein. The format is biochemical, Polaromonas naphthalenivorans. Conditions: 25 °C, pH 7.5, 1 mM GDP, 50 mM KHCO3, 4 mM MgCl2, 100 μM MnCl2, PEP carboxylation direction.

The Km is the concentration of substrate that gives half-maximal velocity. A word on the kcat: it is the maximal rate divided by the concentration of active sites. The term kcat/Km denotes the second-order rate constant that governs catalysis at low substrate concentration. Consider “PnPEPCK (Polaromonas naphthalenivorans CJ2)”, for which the Km was 2500 ± 650 µM, the catalytic constant (kcat) worked out at 23 ± 1.4 s⁻¹ and the specificity constant (kcat/Km) stood at 9200 M⁻¹ s⁻¹.
